The target in the experiment is T1, GST-Flot2 full length (amino acids 1-428) (mouse, UniProt Q60634 1-428).
T1 construct: it may add a CBP tag as well; also called GST-tagged Flot2
T1 sequence (looked up): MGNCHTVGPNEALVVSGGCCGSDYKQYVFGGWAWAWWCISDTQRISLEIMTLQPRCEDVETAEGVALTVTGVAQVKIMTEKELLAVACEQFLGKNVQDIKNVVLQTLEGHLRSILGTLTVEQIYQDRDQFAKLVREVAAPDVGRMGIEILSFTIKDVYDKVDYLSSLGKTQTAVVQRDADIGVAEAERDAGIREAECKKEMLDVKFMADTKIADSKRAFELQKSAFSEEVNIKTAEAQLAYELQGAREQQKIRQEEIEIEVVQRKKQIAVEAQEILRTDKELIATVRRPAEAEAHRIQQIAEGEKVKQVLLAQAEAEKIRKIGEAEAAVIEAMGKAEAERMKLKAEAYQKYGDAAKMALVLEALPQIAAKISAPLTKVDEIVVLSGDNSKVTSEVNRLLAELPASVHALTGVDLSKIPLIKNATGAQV
The experiment can be described thus: pull-down; GST pull-down: GST-Flot2 (full length) on GST resin, His-podocin (full length); overnight at 4 °C; eluted with 20 mM reduced glutathione; immunoblot with anti-His. Conditions: both partners purified. On the technique in general: In western blotting, separated proteins are transferred to a membrane and probed.

B1: His-podocin full length (natural protein, mouse, UniProt Q91X05 1-385, looked up)
chain: MDSRARSSSREAHGRSSRSSSRDDKKAKAGRGSRGRARPDAGAERQSTGRTATRGEPRAPAATATVVDVDEVRGPGEEGTEVVALLESERPEEGIKPSGLGACEWLLVLASLIFIIMTFPFSIWFCIKVVQEYERVIIFRLGHLLPGRAKGPGLFFFLPCLDTYHKVDLRLQTLEIPFHEVVTKDMFIMEIDAVCYYRMENASLLLSSLAHVSKAIQFLVQTTMKRLLAHRSLTEILLERKSIAQDVKVALDAVTCIWGIKVERTEIKDVRLPAGLQHSLAVEAEAQRQAKVRVIAAEGEKAASESLRMAAEILSGTPAAVQLRYLHTLQSLSTEKPATVVLPLPFDMLSLLSSPGNRAQGSINYPSSSKPVEPLNPKKKDSPML
notes: Podocin, mouse, full-length cDNA in pET-28a(+); also called His-tagged podocin; His-tagged mouse podocin
As to B1, the binding result is “binds”.

Source of the values: PMC9830511, “Flot2 acts as a novel mediator of podocyte injury in proteinuric kidney disease” (International Journal of Biological Sciences, 2023).
